B1: Transforming growth factor-β3 (TGF-β3) (ligand, UniProt P10600 301-412, looked up)
chain: ALDTNYCFRNLEENCCVRPLYIDFRQDLGWKWVHEPKGYYANFCSGPCPYLRSADTTHSTVLGLYNTLNPEASASPCCVPQDLEPLTILYYVGRTPKVEQLSNMVVKSCKCS
notes: TGF-β3 ligand used as SPR analyte
B2: TGF-βRII-Fc (muTGFbRII-mFc) (Fc fusion, UniProt Q62312 24-166, looked up)
chain: IPPHVPKSVNSDVMASDNGGAVKLPQLCKFCDVRLSTCDNQKSCMSNCSITAICEKPHEVCVAVWRKNDKNITLETVCHDPKLTYHGFTLEDAASPKCVMKEKKRAGETFFMCACNMEECNDYIIFSEEYTTSSPDLLLVIIQ

How the values were obtained:
[1] = target: B2; test: SPR; Biacore T100; TGF-βRII-Fc captured (~50 RU) by an anti-mouse Fc antibody amine-coupled to a CM5 chip; ligand injected at 0.013-10 nM (0.013-1.1 nM used for the fit); HBS-EP with 350 mM NaCl and 0.5 mg/mL BSA; 1:1 model with mass transport, KD = kd/ka; details: both partners purified
[2] = target: Transforming growth factor-β1 (TGF-β1) (UniProt P01137 279-390); test: cell-based or functional assay
[3] = target: B1; test: cell-based or functional assay

Sequence of Transforming growth factor-β1 (TGF-β1) (P01137 279-390): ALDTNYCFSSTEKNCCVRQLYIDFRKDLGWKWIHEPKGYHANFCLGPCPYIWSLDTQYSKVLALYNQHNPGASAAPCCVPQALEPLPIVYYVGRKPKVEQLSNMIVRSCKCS

Kd [1] [nM]	IC50 of TGF-βRII-Fc against TGF-β1 (640 pg/mL) signalling in A549 cells with the (CAGA)12 luciferase reporter [2] [nM]	IC50 of TGF-βRII-Fc against TGF-β3 (270 pg/mL) signalling in A549 cells with the (CAGA)12 luciferase reporter [3] [nM]	Binder
0.0112			B1
	0.0229	0.00446	B2
